# Test results as given in patent US20220127366A1 (DREN BIO, published 2022).
# Where two headings read alike, the source gives them in different places.
# T1: human Dectin-1 (isoform not given) (human, UniProt Q9BXN2 1-247)
# T1 chain: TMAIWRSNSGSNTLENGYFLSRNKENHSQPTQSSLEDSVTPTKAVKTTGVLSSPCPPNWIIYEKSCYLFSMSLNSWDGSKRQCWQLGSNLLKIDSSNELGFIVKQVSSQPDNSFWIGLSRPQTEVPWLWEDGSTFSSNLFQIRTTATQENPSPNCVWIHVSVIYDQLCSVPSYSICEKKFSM
# T2: human CD20 (human, UniProt P11836 1-297)
# T2 construct: whole, on cells; also called hCD20
# T2 sequence (looked up): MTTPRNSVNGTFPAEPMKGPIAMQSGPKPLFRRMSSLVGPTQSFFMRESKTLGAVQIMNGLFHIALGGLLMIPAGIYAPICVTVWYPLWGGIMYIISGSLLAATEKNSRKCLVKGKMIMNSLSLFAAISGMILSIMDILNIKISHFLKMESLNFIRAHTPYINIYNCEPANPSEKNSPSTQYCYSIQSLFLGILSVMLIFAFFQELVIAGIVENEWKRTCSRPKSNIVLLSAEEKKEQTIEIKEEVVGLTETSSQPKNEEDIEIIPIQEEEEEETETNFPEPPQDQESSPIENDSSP
# Key:
# [1] = biological target: human Dectin-1 isoform A (human) (UniProt Q9BXN2); experiment: flow cytometry, HEK293F hDectin-1a FL cells
# [2] = biological target: human Dectin-1 isoform B (human) (UniProt Q9BXN2); experiment: flow cytometry, HEK-Blue hDectin-1b cells
# [3] = biological target: T1, human Dectin-1 (isoform not given); experiment: flow cytometry, human monocytes
# [4] = biological target: cynomolgus monkey Dectin-1 (cynomolgus monkey); experiment: flow cytometry, cynomolgus monkey monocytes
# [5] = biological target: cynomolgus monkey Dectin-1 (cynomolgus monkey); experiment: flow cytometry, cynomolgus monkey monocytes; remark: listed apart in the source
# [6] = biological target: human Dectin-1 isoform A (human) (UniProt Q9BXN2); experiment: flow cytometry, HEK-Blue hDectin-1a cells
# [7] = biological target: T1, human Dectin-1 (isoform not given); experiment: cell-based or functional assay
# [8] = biological target: T2, human CD20; experiment: flow cytometry, Raji cells
# [9] = biological target: T1, human Dectin-1 (isoform not given); experiment: flow cytometry, HEK 293 cells stably overexpressing human Dectin-1
Molecule,EC50 [1],EC50 [2],EC50 [3],EC50 [6],binding result [8],also measured
anti-Dectin-1 antibody 259931 (commercial),1.2 nM,0.9 nM,0.3 nM,0.8 nM,–,EC50 [4]: 16.5 nM; EC50 [5]: 16 nM
anti-Dectin-1 antibody GE2 (commercial),2.4 nM,12 nM,1.4 nM,1.9 nM,–,–
"anti-Dectin-1 antibody 15E2 (commercial) (antibody, V domains shown) VH: QWQLQQSGAELARPGASWKMSCKASGYTFTTYTMHWWKQRPGQGLEWIGYINPSSGYTNYNQKFKDKATLTADKSSSTASMQLSSLTSEDSAWYYCARERAVLVPYAMDYWGQGTSVTVSS VL: QIVLTQSPAVMSASPGEKWTITCTASSSLSYMHWFQQKPGTSPKLWLYSTSILASGVPTRFSGSGSGTSYSLTISRMEAEDAATYYCQQRSSSPFTFGSGTKLEIK",–,–,–,–,–,"IFNg secretion in PBMC (fold change to isotype), immobilized antibody [7]: 1.6 fold change to isotype; IL6 secretion in PBMC (fold change to isotype), immobilized antibody [7]: 2.6 fold change to isotype; TNFa secretion in PBMC (fold change to isotype), immobilized antibody [7]: 3 fold change to isotype"
"2M24/RSV hIgG1 (fucosylated or afucosylated) (bispecific antibody, V domains shown) VH 1: QVQLVQSGAEVKKPGASVKVSCKSSGYTFTDYYIHWVRQAPGQGLEWMGWINPNSGDTNYAQKFQGRITMTRDTSISTAYLELSRLRSDDTAVFYCARNSGSYSFGYWGQGTLVTVSS VL 1: DIQMTQSPSSVSASVGDRVTITCRASQGISSWLAWYQQKPGKAPKLLIFGASSLQSGVPSRFSGSGSGTDFTLTVSSLQPEDFATYYCQQAYSFPFTFGPGTKVDIE VH 2: QVTLRESGPALVKPTQTLTLTCTFSGFSLSTSGMSVGWIRQPPGKALEWLADIWWDDKKDYNPSLKSRLTISKDTSANQVVLKVTNMDPADTATYYCARSMITNWYFDVWGAGTTVTVSS VL 2: DIQMTQSPSTLSASVGDRVTITCKCQLSVGYMHWYQQKPGKAPKLLIYDTSKLASGVPSRFSGSGSGTAFTLTISSLQPDDFATYYCFQGSGYPFTFGGGTKLEIK",–,–,–,–,no binding (tested: between 10 and 100 nM (about 60 nM)),–
"Fab 2M24-mSA fusion protein (Fab, V domains shown, only the 2M24 VL is tied; also called Fab 2M24 fusion to monomeric streptavidin) VH: QVQLVQSGAEVKKPGASVKVSCKSSGYTFTDYYIHWVRQAPGQGLEWMGWINPNSGDTNYAQKFQGRITMTRDTSISTAYLELSRLRSDDTAVFYCARNSGSYSFGYWGQGTLVTVSS VL: DIQMTQSPSSVSASVGDRVTITCRASQGISSWLAWYQQKPGKAPKLLIFGASSLQSGVPSRFSGSGSGTDFTLTVSSLQPEDFATYYCQQAYSFPFTFGPGTKVDIE",–,–,–,–,–,EC50 [9]: 1.45 nM
"2M24/RSV hIgG1 inert (bispecific antibody, V domains shown, also called 2M24/RSV with inert human IgG1 Fc) VH 1: QVQLVQSGAEVKKPGASVKVSCKSSGYTFTDYYIHWVRQAPGQGLEWMGWINPNSGDTNYAQKFQGRITMTRDTSISTAYLELSRLRSDDTAVFYCARNSGSYSFGYWGQGTLVTVSS VL 1: DIQMTQSPSSVSASVGDRVTITCRASQGISSWLAWYQQKPGKAPKLLIFGASSLQSGVPSRFSGSGSGTDFTLTVSSLQPEDFATYYCQQAYSFPFTFGPGTKVDIE VH 2: QVTLRESGPALVKPTQTLTLTCTFSGFSLSTSGMSVGWIRQPPGKALEWLADIWWDDKKDYNPSLKSRLTISKDTSANQVVLKVTNMDPADTATYYCARSMITNWYFDVWGAGTTVTVSS VL 2: DIQMTQSPSTLSASVGDRVTITCKCQLSVGYMHWYQQKPGKAPKLLIYDTSKLASGVPSRFSGSGSGTAFTLTISSLQPDDFATYYCFQGSGYPFTFGGGTKLEIK",–,–,–,–,no binding (tested: between 10 and 100 nM (about 60 nM)),–
